Results on four molecules are retold here after patent US20260049151A1 (SHENGHE CHINA BIOPHARMACEUTICAL, published 2026).

Sequences and labels used below:
T1: Human-TNFR2-His (human, UniProt P20333 23-257)
T1 construct: Bought protein; also called human TNFR2 protein; TNFR2 protein; not shown: His tag
T1 sequence (looked up): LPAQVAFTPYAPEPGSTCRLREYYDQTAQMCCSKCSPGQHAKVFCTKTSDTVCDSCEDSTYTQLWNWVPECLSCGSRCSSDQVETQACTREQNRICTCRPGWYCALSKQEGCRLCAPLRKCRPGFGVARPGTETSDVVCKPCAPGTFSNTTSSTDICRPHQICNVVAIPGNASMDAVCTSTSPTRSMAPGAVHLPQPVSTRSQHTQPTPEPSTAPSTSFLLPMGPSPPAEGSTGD

T2: Human TNFR2 mFc (human, UniProt P20333 23-257)
T2 construct: Bought protein; not shown: mFc
T2 sequence (looked up): T1 sequence (looked up)

B1: Antibody E1 (bispecific antibody, human IgG1, kappa)
light: DIVMTQSPATLSVSPGERATLSCKASQNVGSNVDWYQQKPGQSPRVLIYKASIRYTGIPARFSGSGSGTEFTLTISILQSEDFAVYFCMQSKSYPITFGQGTKLEIKRTVAAPSVFIFPPSDEQLKSGTASVVCLLNNFYPREAKVQWKVDNALQSGNSQESVTEQDSKDSTYSLSSTLTLSKADYEKHKVYACEVTHQGLSSPVTKSFNRGEC
heavy: not shown
notes: IgG1 subtype; full-length TNFR2 antibody with 4-1BB scFv at the C-terminus of the heavy chains
B2: Antibody J1 (bispecific antibody, human IgG1, kappa)
light: DIQMTQSPSSLSASLGDRVTISCSASQGISNYLNWYQQKPDGTVKLLIYYTSTLHSGVPSRFSGSGSGTDYTLTISSLQPEDIATYYCQQYSKLPWTFGGGTKLEIKRTVAAPSVFIFPPSDEQLKSGTASVVCLLNNFYPREAKVQWKVDNALQSGNSQESVTEQDSKDSTYSLSSTLTLSKADYEKHKVYACEVTHQGLSSPVTKSFNRGEC
heavy: not shown
notes: IgG1 subtype; full-length 4-1BB antibody with TNFR2 VHH at the C-terminus of the heavy chains
B3: Antibody M1 (bispecific antibody, human IgG1, kappa)
light: B2 light
heavy: not shown
notes: IgG1 subtype; full-length 4-1BB antibody with TNFR2 VHH at the N-terminus of the heavy chains
B4: Antibody H (bispecific antibody, human IgG1, kappa)
light: QVQLQESGPGLVKPSETLSLTCTVSGSSLTSYGVHWVRQPPGKCLEGLGVIWPGGSTNYNSALMSRVTISKDNSKSQVSLKMSSLTAADTAVYYCARVTGTWYFDVWGQGTTVTVSSGGGGSGGGGSGGGGSDIQMTQSPSSLSASLGDRVTISCSASQGISNYLNWYQQKPDGTVKLLIYYTSTLHSGVPSRFSGSGSGTDYTLTISSLQPEDIATYYCQQYSKLPWTFGCGTKLEIKGGGGSGGGGSGGGGSDIVMTQSPATLSVSPGERATLSCKASQNVGSNVDWYQQKPGQSPRVLIYKASIRYTGIPARFSGSGSGTEFTLTISILQSEDFAVYFCMQSKSYPITFGQGTKLEIKRTVAAPSVFIFPPSDEQLKSGTASVVCLLNNFYPREAKVQWKVDNALQSGNSQESVTEQDSKDSTYSLSSTLTLSKADYEKHKVYACEVTHQGLSSPVTKSFNRGEC
heavy: not shown
notes: IgG1 subtype; full-length TNFR2 antibody with 4-1BB scFv at the N-terminus of the light chains

T3 sequence (Q07011 24-186 limits assumed): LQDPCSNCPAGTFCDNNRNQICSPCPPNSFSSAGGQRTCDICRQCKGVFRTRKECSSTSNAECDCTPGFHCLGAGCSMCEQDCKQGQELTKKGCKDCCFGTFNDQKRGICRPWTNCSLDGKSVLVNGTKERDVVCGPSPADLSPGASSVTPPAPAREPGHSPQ

The target of the first assay is T1, Human-TNFR2-His. Put plainly: BLI, antibody on AHC sensor, 100 nM TNFR2-His in solution. The method, then: The AHC sensor was soaked in 0.02% PBST (0.02% Tween 20, pH 7.4, 1×PBS) as a buffer for 600 s to remove the sucrose covering the sensor surface. The AHC sensor was equilibrated with 0.02% PBST (0.02% Tween 20, pH 7.4, 1×PBS) as a buffer for 60 s, the antibody in the sample plate was solidified for 300 s, and the secondary equilibration buffer was used for 180 s. 100 nM human-TNFR2-His (manufacturer: SINO, CAT: 10417-H08H, LOT: LC15NO0412) protein was bound to the antibody for 300 s and then dissociated for 600 s. After dissociation, 10 mM glycine (pH 2.0) was used as a regeneration buffer for 30 s. The sensor was regenerated with 10 mM glycine (pH 2.0).
For the molecule B1, binding was characterised by a dissociation constant (Kd) of 0.207 nM, the koff was determined as 8.04e-05 s⁻¹ and the kon came out at 389000 M⁻¹ s⁻¹.
Molecule B2 registered a Kd of 1.82 nM, a koff of 0.000394 s⁻¹ and a kon of 217000 M⁻¹ s⁻¹.
On to B3, for which the Kd was determined as 1.28 nM, the koff turned out to be 0.000394 s⁻¹ and the association rate constant (kon) was 308000 M⁻¹ s⁻¹.
For B4 the same measures were 0.241 nM, 6.64e-05 s⁻¹ and 276000 M⁻¹ s⁻¹.

A further assay addresses T3, Human 4-1BB Fc (human, UniProt Q07011 24-186).
T3 construct: same catalogue and lot number as Human 4-1BB His; not shown: Fc
Nature of the assay: bridging ELISA: Human 4-1BB Fc coated (0.3 ug/mL), antibody titrated, then Human-TNFR2-His (0.3 ug/mL), HRP anti-His detection (Example 4).
As to B1, the “EC50 (read off the curve)” value was roughly 0.2 nM.
Still for that read-out and setting: then B2, with roughly 0.2 nM.
In the case of B3, the “EC50 (read off the curve)” value was roughly 0.2 nM.
For B4, the “EC50 (read off the curve)” value was roughly 0.3 nM.

In the next assay the target is T2, Human TNFR2 mFc. Nature of the assay: bridging ELISA: Human TNFR2 mFc coated (0.3 ug/mL), antibody titrated, then Human 4-1BB His (0.3 ug/mL), HRP anti-His detection (Example 5).
For the molecule B1, the “EC50 (read off the curve)” value is roughly 0.07 nM.
Regarding B2, the “EC50 (read off the curve)” value was roughly 0.07 nM.
B3: the “EC50 (read off the curve)” value is roughly 0.09 nM.
Turning to B4, the “EC50 (read off the curve)” value is roughly 0.07 nM.
